{"source": "paper PMC6558399", "origin": "cited, not measured here", "biological_target": "Galectin-1 (Homo sapiens) (UniProt P09382)", "note": "pKd: −log10 of the molar value."}
{"substance": "Galectin-1 (from UniProt P09382)", "values": [{"measurement": "pKd", "value": 5.15}]}
